According to publication PMC4172472:

Target: vitronectin (UniProt P04004)
Sequence of UniProt P04004 (P04004 20-478): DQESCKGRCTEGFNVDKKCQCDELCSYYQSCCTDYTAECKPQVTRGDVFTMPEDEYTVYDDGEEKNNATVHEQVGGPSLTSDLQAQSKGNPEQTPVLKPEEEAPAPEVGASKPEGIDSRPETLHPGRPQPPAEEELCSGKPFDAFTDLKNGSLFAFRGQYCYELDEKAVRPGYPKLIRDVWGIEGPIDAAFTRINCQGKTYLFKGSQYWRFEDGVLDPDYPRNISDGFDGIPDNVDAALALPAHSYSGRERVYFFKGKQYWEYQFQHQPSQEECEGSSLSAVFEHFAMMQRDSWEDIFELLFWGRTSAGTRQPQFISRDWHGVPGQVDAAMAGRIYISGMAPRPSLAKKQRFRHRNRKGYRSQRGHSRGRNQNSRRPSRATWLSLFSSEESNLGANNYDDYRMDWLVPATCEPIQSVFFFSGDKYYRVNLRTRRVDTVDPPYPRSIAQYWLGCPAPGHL

Substance “αvβ3 integrin (from UniProt P06756 31-1048; P05106 27-788) (receptor)” has a detachment of adherent WM266 cells from vitronectin-coated plates by the anti-αvβ3 antibody LM609 (10 µg/mL), 2 h of 50%.
